Reference: patent US6677299B2, “Method to increase cerebral blood flow in amyloid angiopathy” (The Trustee of Columbia University in the city of New York, priority 2000, dated 2004)

Molecular target: T1, RAGE (Mus musculus, UniProt Q62151)
T1 construct: The first set of studies employed synthetic Aβ infused in to wild-type mice; from tissue; host or cells: brain vasculature (blood-brain barrier) of living wild-type mice
Assay: Brain perfusion model: Aβ binding to brain capillaries and transport across the BBB
Assay type: in vivo, mice
Procedure: FIGS. 1A-1F. […] FIG. 1A and bFIG.
Brain perfusion model. […] Details of the extracorporeal perfusion circuit were as reported elsewhere. ^22,23,38,39 At the start of the perfusion, the contralateral common carotid artery was ligated, and both jugular veins severed to allow free drainage of the perfusate. Brains were perfused with oxygenated perfusion medium at a flow rate of 1 ml/min by peristalitic pump. […] Perfusion pressure and animal's own arterial blood pressure were continuously monitored. Blood gasses pO2, pCO2 and pH and electrolytes in the arterial inflow and in animal's own blood were monitored.
Injection of radioisotopes for transport studies. […] When the effects of different unlabeled molecular reagents were tested, those were injected 5 min prior to tracers injection and than simultaneously with radiolabled ligands. At predetermined times within 10 min mice were sacrificed by decapitation, and brain tissue prepared for radioactivity analysis. TCA and HPLC analysis as we described were used to determine molecular forms of uptake of radiolabeled Aβ by the BBB.^22,23 Capillary-depletion technique was used to separate micravascular pellet from capillary-depleted brain to quantify in vivo binding to microvessels vs. transport into brain parenchyma, as we reported.^22, 23
Mathematical modeling for transport studies. […] The rate of entry (KIN) is computed from eq. 1: d[CIN (TEST-MOLEUCLE)−CIN (ALBUMIN)]/dt=KINCPL−KOUT[CIN (TEST-MOLECULE)−CIN (ALBUMIN)], where KOUT is exit or efflux transfer coefficient, and R is the steady state or equilibrium ratio. Eq. 1 is integrated to give [CIN (TEST-MOLECULE)−CIN (ALBUMIN)]/CPL=R (1−e^−KOUT T) (eq. 2). R is the steady state ratio, and the ratio KIN/KOUT at infinite time, and T is infusion time. Numerical values for KOUT may be obtained from the slope of the plot of ln (R−[CIN (TEST-MOLECULE)−CIN (ALBUMIN)]/CPL) (eq. 3) against T, using the equation KOUT=−ln(R−[CIN (TEST-MOLECULE)−CIN (ALBUMIN)]/CPL)/T (eq. 4). Finally, the value for KIN is derived by substituting the number for KOUT in: KIN=R KOUT (eq. 5). When tracer uptake remains linear over studied period of time, the exist constant approaches zero, and KIN=d[CIN (TEST-MOLEUCLE)−CIN (ALBUMIN)]/dt CPL. […] Advanced graphics software and the MLAB mathematical modeling system (as above) will be used to obtain graphic plots and compute transfer coefficients.

[1] = circulating 125I-labeled peptide, mice and guinea pigs
[2] = reagent in arterial inflow, 125I-Aβ 4 nM, 10 min

T1 sequence (Q62151 23-402): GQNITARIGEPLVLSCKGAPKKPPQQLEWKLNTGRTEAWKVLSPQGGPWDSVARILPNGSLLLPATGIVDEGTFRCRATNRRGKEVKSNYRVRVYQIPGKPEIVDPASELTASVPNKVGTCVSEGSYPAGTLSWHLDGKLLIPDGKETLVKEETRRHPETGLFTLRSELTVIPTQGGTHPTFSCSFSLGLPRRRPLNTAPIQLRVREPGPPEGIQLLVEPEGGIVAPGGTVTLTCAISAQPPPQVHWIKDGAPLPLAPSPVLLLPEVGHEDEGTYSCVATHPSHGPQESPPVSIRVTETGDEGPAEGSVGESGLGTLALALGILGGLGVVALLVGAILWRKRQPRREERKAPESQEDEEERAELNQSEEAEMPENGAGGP

| effect on Aβ transport into brain (BBB transport of Aβ) [2] | effect on binding of Aβ to brain microvessels [2] | Substance | binding of the peptide to brain microvessels [1] | transport of the peptide across the BBB [1] |
| --- | --- | --- | --- | --- |
|  |  | Aβ1-42: synthetic amyloid-β peptide 1-42, human form | absence of its significant binding | somewhat slower, but significant |
| did not affect | did not affect | fucoidan |  |  |
